Source: patent US20250326792A1, “A FORMULATION FOR TREATMENT OF PIGMENTARY DISORDERS” (priority 2022, published 2025)
PHPP = 3-Phenylpyrazolo[3,4-d]pyrimidine (N-terminal cap)

Tests used:
NHEM cells = assay: Melanin content assay in NHEM cells; type: cell-based, Human; conditions: for % increase in melanin content compared to control / Fold change in melanin content: NHEM CELLS
Method: (§1) Culture and maintenance of cell lines: B16F10 cells were cultured in RPMI containing 10% fetal bovine serum, 100 units per millilitre (U/mL) penicillin, 0.1 mg/mL streptomycin, and 0.25 microgram per millilitre (μg/mL) amphotericin B at 37 degrees Celsius in a humidified 95% air/5% CO2 incubator. Drug treatment was done 24 hours after seeding. Cells were harvested 48 hours later and melanin content and tyrosinase activity determined in triplicate. NHEM cells were cultured in DMEM containing 10% fetal bovine serum, 100 units per milliliter (U/mL) penicillin, 0.1 mg/mL streptomycin, and 0.25 microgram per millilitre (μg/mL) amphotericin B at 37 degrees Celsius in a humidified 95% air/5% CO2 incubator. Drug treatment was done 24 hours after seeding. Cells were harvested 48 hours later and melanin content and tyrosinase activity determined in triplicate.
(§2) IS103 was dissolved in water for injection or DMSO to prepare stock solution of about 50 mg/ml. The stock solution was used for preparation of subsequent dilutions in solvent to achieve working dilutions for treatment ranging 0.1 μg/ml to 1000 μg/ml.
(§3) Cells were seeded in a 6-well plate (2×10^4 cells/well) and incubated overnight to allow the cells to adhere. After treating with various test samples for 4 or 5 days, cells were washed with phosphate-buffered saline (PBS), trypsinized, counted, and then lysed in 1 N NaOH at 100° C. for about 1 hour. The melanin content in each sample was calculated by comparison of absorbance at 400 nm of unknown samples with a standard curve obtained using synthetic melanin. IS103 enhances melanin synthesis in a dose dependent manner without significant toxicity. B16F10 and NHEM cells were treated with different concentrations of IS103 ranging from 0.1 to 1000 μg/ml and analysed melanin contents in cells. It was observed that IS103 was able to enhance pigmentation of B16F10 and NHEM cells in a dose-dependent manner (Table 18 and FIGS. 4 and 5). […] To assess the toxicity of the IS103 peptide, cell viability was analyzed by MTT assay.

[1] = Stability of IS103 API, accelerated (Condition 1, 5±3° C.); type: physicochemical
Method: The purpose of stability testing is to provide evidence on how the quality of a drug substance or drug product varies with time under the influence of a variety of environmental factors such as temperature, humidity, etc. and to establish a re-test period for the drug substance or a shelf life for the drug product and recommended storage conditions. The study was conducted according to the WHO and schedule-Y guidelines.
The IS103 API is a lyophilized white fluffy powder, and it was filled at sterile condition in glass injection vial which has airlock-rubber capping. This container closure system is same as or simulates the packaging proposed for storage and distribution.
The following test attributes have been selected according to the above said guidelines: • appearance; odour; colour; colour of solution (when IS103 API is soluble in solvent); clarity of solution; degradation and assessment of container closure system.
The studies were conducted under appropriate storage conditions (with appropriate tolerances) that test IS103 API thermal stability and its sensitivity to moisture. The IS103 API is intended for storage for 36 months. Accordingly, long term stability studies were done for 36 months. The details of the storage conditions have been furnished hereunder.

B16F10 cells = assay: Melanin content assay in B16F10 cells; type: cell-based; conditions: for % increase in melanin content compared to control / Fold change in melanin content: B16F10 CELLS
Method: as §1, §2
as §3, with “IS103 enhances melanin synthesis in a dose dependent manner without significant toxicity.” left out, “cells.” for “cells. It was observed that IS103 was able to enhance pigmentation of B16F10 and NHEM cells in a dose-dependent manner (Table 18 and FIGS. 4 and 5).”

**Q.** What does the source list for “PHPP-Tyr-Arg-Ser-Arg-Lys-Tyr-Ser-Ser-Trp-Tyr-NH2 ({PHPP}-YRSRKYSSWY-NH2) [IS103]”?
**A.** % increase in melanin content compared to control (NHEM cells; 0.1 μg/mL): 0%; Fold change in melanin content (NHEM cells; 0.1 μg/mL): 1.0 ± 0.20; % increase in melanin content compared to control (NHEM cells; 1 μg/mL): 0%; Fold change in melanin content (NHEM cells; 1 μg/mL): 1.0 ± 0.20; % increase in melanin content compared to control (NHEM cells; 10 μg/mL): 0%; Fold change in melanin content (NHEM cells; 10 μg/mL): 1.0 ± 0.20; % increase in melanin content compared to control (NHEM cells; 50 μg/mL): 40%; Fold change in melanin content (NHEM cells; 50 μg/mL): 1.4 ± 0.20; % increase in melanin content compared to control (NHEM cells; 100 μg/mL): 130%; Fold change in melanin content (NHEM cells; 100 μg/mL): 2.3 ± 0.20; % increase in melanin content compared to control (NHEM cells; 250 μg/mL): 160%; Fold change in melanin content (NHEM cells; 250 μg/mL): 2.6 ± 0.20; % increase in melanin content compared to control (NHEM cells; 500 μg/mL): 180%; Fold change in melanin content (NHEM cells; 500 μg/mL): 2.8 ± 0.20; % increase in melanin content compared to control (NHEM cells; 1000 μg/mL): 165%; Fold change in melanin content (NHEM cells; 1000 μg/mL): 2.7 ± 0.20; effect on melanin synthesis (FIG. 5) (NHEM cells; NHEM cells, different concentrations, about 48 hours): enhanced melanin synthesis in a dose-dependent manner; API calculated on the anhydrous basis ([1]; 5±3° C., 1 M): 99.68%; Appearance white to off white amorphous powder ([1]; 5±3° C., 1 M): White; Related substances (By HPLC) Any Max Impurity ([1]; 5±3° C., 1 M): 0.35%; Related substances (By HPLC) Total Impurity ([1]; 5±3° C., 1 M): 2.23%; Solubility Sparingly soluble in water ([1]; 5±3° C., 1 M): Complies; Water Content (By Karl Fischer-Titrator) ([1]; 5±3° C., 1 M): 4.27% w/w; Internal change in attributes: Appearance ([1]; 5±3° C., 1st month): No change; Internal change in attributes: Clarity of solution ([1]; 5±3° C., 1st month): No change; Internal change in attributes: Color ([1]; 5±3° C., 1st month): No change; Internal change in attributes: Color of solution ([1]; 5±3° C., 1st month): No change; Internal change in attributes: Odor ([1]; 5±3° C., 1st month): No change; Internal change in attributes: Appearance ([1]; 5±3° C., 2nd month): No change; Internal change in attributes: Clarity of solution ([1]; 5±3° C., 2nd month): No change; Internal change in attributes: Color ([1]; 5±3° C., 2nd month): No change; Internal change in attributes: Color of solution ([1]; 5±3° C., 2nd month): No change; Internal change in attributes: Odor ([1]; 5±3° C., 2nd month): No change; API calculated on the anhydrous basis ([1]; 5±3° C., 3 M): 99.14%; Appearance white to off white amorphous powder ([1]; 5±3° C., 3 M): White; Related substances (By HPLC) Any Max Impurity ([1]; 5±3° C., 3 M): 0.40%; Related substances (By HPLC) Total Impurity ([1]; 5±3° C., 3 M): 2.30%; Solubility Sparingly soluble in water ([1]; 5±3° C., 3 M): Complies; Water Content (By Karl Fischer-Titrator) ([1]; 5±3° C., 3 M): 4.29% w/w; Internal change in attributes: Appearance ([1]; 5±3° C., 3rd month): No change; Internal change in attributes: Clarity of solution ([1]; 5±3° C., 3rd month): No change; Internal change in attributes: Color ([1]; 5±3° C., 3rd month): No change; Internal change in attributes: Color of solution ([1]; 5±3° C., 3rd month): No change; Internal change in attributes: Odor ([1]; 5±3° C., 3rd month): No change; API calculated on the anhydrous basis ([1]; 5±3° C., 6 M): 99.00%; Appearance white to off white amorphous powder ([1]; 5±3° C., 6 M): White; Related substances (By HPLC) Any Max Impurity ([1]; 5±3° C., 6 M): 0.49%; Related substances (By HPLC) Total Impurity ([1]; 5±3° C., 6 M): 2.44%; Solubility Sparingly soluble in water ([1]; 5±3° C., 6 M): Complies; Water Content (By Karl Fischer-Titrator) ([1]; 5±3° C., 6 M): 4.87% w/w; Internal change in attributes: Appearance ([1]; 5±3° C., 6th month): No change; Internal change in attributes: Clarity of solution ([1]; 5±3° C., 6th month): No change; Internal change in attributes: Color ([1]; 5±3° C., 6th month): No change; Internal change in attributes: Color of solution ([1]; 5±3° C., 6th month): No change; Internal change in attributes: Odor ([1]; 5±3° C., 6th month): No change; API calculated on the anhydrous basis ([1]; 5±3° C., Initial): 99.73%; Appearance white to off white amorphous powder ([1]; 5±3° C., Initial): White; Related substances (By HPLC) Any Max Impurity ([1]; 5±3° C., Initial): 0.39%; Related substances (By HPLC) Total Impurity ([1]; 5±3° C., Initial): 2.09%; Solubility Sparingly soluble in water ([1]; 5±3° C., Initial): Complies; Water Content (By Karl Fischer-Titrator) ([1]; 5±3° C., Initial): 4.18% w/w; found to be stable for ([1]; accelerated condition, 5±3° C.): 6 months; stable for ([1]; refrigerator (5±3° C.) conditions): 36 months; % increase in melanin content compared to control (B16F10 cells; 0.1 μg/mL): 0%; Fold change in melanin content (B16F10 cells; 0.1 μg/mL): 1.0 ± 0.20; % increase in melanin content compared to control (B16F10 cells; 1 μg/mL): 0%; Fold change in melanin content (B16F10 cells; 1 μg/mL): 1.0 ± 0.30; % increase in melanin content compared to control (B16F10 cells; 10 μg/mL): 20%; Fold change in melanin content (B16F10 cells; 10 μg/mL): 1.2 ± 0.10; % increase in melanin content compared to control (B16F10 cells; 50 μg/mL): 60%; Fold change in melanin content (B16F10 cells; 50 μg/mL): 1.6 ± 0.20; % increase in melanin content compared to control (B16F10 cells; 100 μg/mL): 125%; Fold change in melanin content (B16F10 cells; 100 μg/mL): 2.3 ± 0.30; % increase in melanin content compared to control (B16F10 cells; 250 μg/mL): 180%; Fold change in melanin content (B16F10 cells; 250 μg/mL): 2.8 ± 0.20; % increase in melanin content compared to control (B16F10 cells; 500 μg/mL): 190%; Fold change in melanin content (B16F10 cells; 500 μg/mL): 2.9 ± 0.10; % increase in melanin content compared to control (B16F10 cells; 1000 μg/mL): 176%; Fold change in melanin content (B16F10 cells; 1000 μg/mL): 2.8 ± 0.30; concentration sufficient to significantly enhance melanin synthesis (B16F10 cells; B16F10 and NHEM cells, not distinguished): 10 µg/mL; effect on melanin synthesis (FIG. 4) (B16F10 cells; B16F10 cells, different concentrations, about 48 hours): enhanced melanin synthesis in a dose-dependent manner
